Experimental data as given in publication PMC5955193, “Streptococcus gallolyticus subsp. gallolyticus endocarditis isolate interferes with coagulation and activates the contact system” (Virulence, 2017).

Legend:
[1] = biological target: T1, human coagulation factor XII (human); assay: SPR; Biacore 3000, CM3 chip, Gallo2179 immobilised (1900 RUs) by amine coupling; FXII as analyte at 12.5 - 200 nM; 25°C, PBS running buffer; 1:1 Langmuir global fit; settings: both partners purified
T1 construct: coagulation factor XII (serine protease zymogen), human; also called FXII; contact factor XII; source: bought: Haemochrom Diagnostica, Germany

[2] = biological target: T1, human coagulation factor XII; assay: MST; NT-647 labeled Gallo2179 kept constant (estimated 50-300 nM); 16-step serial dilution of non-labeled FXII (6.25 μM - 0.19 nM) or HK (4.15 μM - 0.12 nM); Monolith NT.115; three independent measurements; settings: both partners purified

B1: Pil1 collagen-binding adhesin Gallo2179 of Streptococcus gallolyticus subsp. gallolyticus UCN34, recombinant (natural protein)
chain: MFYYLGEGIINFRKLFIALVLIIFSFFTVSEVRAADVSNRVTSLTVATTELQDGGRTTVRVEFNDRAGKIHSGDTIEVTWSISNSIYLNGYTKSIPLTIQGVNVGTLEVTEHNAIFKFNSNIETMENVSGWGEFEVIGRNVTNTSSENTGTAVVQVGGYSQNISITKPQSGTGTSSFYYKTGDIQPSDTNRVRWFLLVNNNKEYVESDVTIEDDIQSGQTLDMSSFDITISGYQNKRFVGESALEEFKRSCPNSSIEITQKSEGGHISIRLSRDDVILNTISIHYKTKILDFDQEKFANNSNITYKPLYKDWVTNKESNYEVVNVNANGGVDGSRYTSVTVNKVWNDKDNQDGKRSDKVVIQLLADGQEISGKQLELSEENGWSGTFEKLNKYHSDNTLITYTVKEVTDLPDYQTTVSENSKNNYTITNTHIPEVIDLSGKKIWDDNNNQDGIRPETITVHLLANGVDTGQVKTVSKSDNWEYQFKDLPKYQNGEKVVYTVSEDVVVGYEMSVSGMNLTNTHTPEVTNILISKYWDDNDDKLKKRPESIQITLHANGKEYQTVTLTASNQWQYEFKDLPKYKDGEKIAYTVTEADVPNYQLISIEEDESGNWKITNKVEESYLFPNTGGKGISGYYTVGIVLLLSIGLLFLKKFIGDY
modifications: fluorescent label NT-647 covalently attached by NHS coupling (in the MST only)
- Kd [1]: 14 nM
- Kd [2]: 12.9 nM
